B1: AD-PRE1 (PACLOBUTRAZOL-RESISTANT-1 fused to GAL4AD) [Arabidopsis thaliana] / BD-IBH1 (ILI1 BINDING bHLH PROTEIN1 fused to GAL4BD) [Arabidopsis thaliana] (parent complex)
chain 1: MSNRRSRQSSSAPRISDNQMIDLVSKLRQILPEIGQRRRSDKASASKVLQETCNYIRNLNREVDNLSERLSQLLESVDEDSPEAAVIRSLLM
chain 2: MASADKLINTDVPEKDVFAFHFLQSLSNLRKQNPFDTPDQKNYRVRKIKKAAYVSMARAAGGSSRLWSRALLRRADKDDNKIVRFSRRKWKISSKRRRSNQRAPVVEEAAERLRNLVPGGGGMETSKLMEETAHYIKCLSMQVKVMQCLVDGLSPK

Variants of: B1
Assay: pull-down, band quantification normalized to input; parent: 0.32; read off a plot

| response [Pull-down/Input] | Variant |
| --- | --- |
| ~0.13 | chain 1 MSNRRSRQSSSAPRISDNQMIDLVSKLRQILPEIGQRRRSDKASASKVLQETCNYIRNLNREVDNLEERLSQLLESVDEDSPEAAVIRSLLM [chain 1 S67E] |
| ~0.23 | chain 1 MSNRRSRQSSSAPRISDNQMIDLVSKLRQILPEIGQRRRSDKASASKVLQETCNYIRNLNREVDNLAERLSQLLESVDEDSPEAAVIRSLLM [chain 1 S67A] |

Variants of: B1
Assay: yeast two-hybrid, quantitative β-galactosidase assay; parent: 3.9; read off a plot

| response | Variant |
| --- | --- |
| ~2.3 β-gal units | chain 1 MSNRRSRQSSSAPRISDNQMIDLVSKLRQILPEIGQRRRSDKASASKVLQETCNYIRNLNREVDNLEERLSQLLESVDEDSPEAAVIRSLLM [chain 1 S67E] |
| ~3.6 β-gal units | chain 1 MSNRRSRQSSSAPRISDNQMIDLVSKLRQILPEIGQRRRSDKASASKVLQETCNYIRNLNREVDNLAERLSQLLESVDEDSPEAAVIRSLLM [chain 1 S67A] |

Variants of: B1
Assay: Ratiometric-Bimolecular Fluorescence Complementation (rBiFC) in tobacco; n = 50 images; parent: 0.42; read off a plot

| response [YFP/RFP] | Variant |
| --- | --- |
| ~0.16 | chain 1 MSNRRSRQSSSAPRISDNQMIDLVSKLRQILPEIGQRRRSDKASASKVLQETCNYIRNLNREVDNLEERLSQLLESVDEDSPEAAVIRSLLM [chain 1 S67E] |

— PMC7729563, “Phospho-Mutant Activity Assays Provide Evidence for the Negative Regulation of Transcriptional Regulator PRE1 by Phosphorylation” (International Journal of Molecular Sciences, 2020)
